In FireProtDB (doi:10.1093/protein/12.10.841):
Where “and” joins values, the source holds several entries; their conditions need not be identical. Equal values may be shown once.

B1: Lysozyme C, P61626 (parent)
chain: MKALIVLGLVLLSVTVQGKVFERCELARTLKRLGMDGYRGISLANWMCLAKWESGYNTRATNYNAGDRSTDYGIFQINSRYWCNDGKTPGAVNACHLSCSALLQDNIADAVACAKRVVRDPQGIRAWVAWRNRCQNRDVRQYVQGCGV

Variants of: B1
Conditions: Homo sapiens; pH 2.51; Thermal; DSC; glycine 0.05 M; reversible: yes; structure 1LZ1; whole UniProt chain shown

Variant | Tm [°C] | heat capacity change of unfolding [kcal/mol/K] | unfolding enthalpy (calorimetric) [kcal/mol] | unfolding enthalpy (van 't Hoff) [kcal/mol]
I77L | 61.4 | 1.12 | 109 | 117
I77S | 50.2 | 1.27 | 87 | 92.7

Same assay, conditions: Homo sapiens; pH 2.66; Thermal; DSC; glycine 0.05 M; reversible: yes; structure 1LZ1; whole UniProt chain shown

Variant | Tm [°C] | heat capacity change of unfolding [kcal/mol/K] | unfolding enthalpy (calorimetric) [kcal/mol] | unfolding enthalpy (van 't Hoff) [kcal/mol]
I77L | 64.5 | 1.17 | 113 | 122

Same assay, conditions: Homo sapiens; pH 2.7; 64.9 °C; Thermal; DSC; glycine 0.05 M; reversible: yes; structure 1LZ1; whole UniProt chain shown

Variant | ddG of mutation (higher = less stable) [kcal/mol]
I77L | 0
I77V | 1.1
I77G | 3.82
I77Y | 3.78
I77F | 0.81
I77S | 3.59
I77A | 1.72

Same assay, conditions: Homo sapiens; pH 2.7; Thermal; DSC; glycine 0.05 M; reversible: yes; structure 1LZ1; whole UniProt chain shown

Variant | Tm | change of melting temperature, mutant - wild type (higher = more stable) [°C] | heat capacity change of unfolding | unfolding enthalpy (calorimetric) | unfolding enthalpy (van 't Hoff)
I77L | 64.9 °C | 0 | 1.27 kcal/mol/K | 114 kcal/mol | 122 kcal/mol
I77V | 61.5 °C and 64.9 °C | -3.4 | 1.2 kcal/mol/K | 110 kcal/mol | 117 kcal/mol
I77G | 52.2 °C | -12.7 | 1.24 kcal/mol/K | 106 kcal/mol | 109 kcal/mol
I77Y | – | -13.8 | 1.34 kcal/mol/K | 97.8 kcal/mol | 105 kcal/mol
I77F | 64.9 °C | – | – | – | –
I77S | – | -11.8 | 1.2 kcal/mol/K and 1.34 kcal/mol/K | 90.8 kcal/mol and 107 kcal/mol | 96.8 kcal/mol and 114 kcal/mol
I77A | 59.7 °C | -5.2 | 1.46 kcal/mol/K | 115 kcal/mol | 121 kcal/mol

Same assay, conditions: Homo sapiens; pH 2.83; Thermal; DSC; glycine 0.05 M; reversible: yes; structure 1LZ1; whole UniProt chain shown

Variant | Tm [°C] | heat capacity change of unfolding [kcal/mol/K] | unfolding enthalpy (calorimetric) [kcal/mol] | unfolding enthalpy (van 't Hoff) [kcal/mol]
I77L | 67 | 1.17 | 116 | 126

Same assay, conditions: Homo sapiens; pH 2.96; Thermal; DSC; glycine 0.05 M; reversible: yes; structure 1LZ1; whole UniProt chain shown

Variant | Tm [°C] | heat capacity change of unfolding [kcal/mol/K] | unfolding enthalpy (calorimetric) [kcal/mol] | unfolding enthalpy (van 't Hoff) [kcal/mol]
I77L | 69.8 | 1.31 | 119 | 128

Same assay, conditions: Homo sapiens; pH 3.17; Thermal; DSC; glycine 0.05 M; reversible: yes; structure 1LZ1; whole UniProt chain shown

Variant | Tm [°C] | heat capacity change of unfolding [kcal/mol/K] | unfolding enthalpy (calorimetric) [kcal/mol] | unfolding enthalpy (van 't Hoff) [kcal/mol]
I77L | 72.1 | 1.24 | 123 | 132
I77S | 60 | 1.24 | 99.9 | 106

Same assay, conditions: Homo sapiens; pH 2.71; Thermal; DSC; glycine 0.05 M; reversible: yes; structure 1LZ1; whole UniProt chain shown

Variant | Tm [°C] | heat capacity change of unfolding [kcal/mol/K] | unfolding enthalpy (calorimetric) [kcal/mol] | unfolding enthalpy (van 't Hoff) [kcal/mol]
I77Y | 51.4 | 1.55 | 79.3 | 84.4

Same assay, conditions: Homo sapiens; pH 3.18; Thermal; DSC; glycine 0.05 M; reversible: yes; structure 1LZ1; whole UniProt chain shown

Variant | Tm [°C] | heat capacity change of unfolding [kcal/mol/K] | unfolding enthalpy (calorimetric) [kcal/mol] | unfolding enthalpy (van 't Hoff) [kcal/mol]
I77Y | 59.5 | 1.27 | 90.6 | 97

Same assay, conditions: Homo sapiens; pH 2.54; Thermal; DSC; glycine 0.05 M; reversible: yes; structure 1LZ1; whole UniProt chain shown

Variant | Tm [°C] | heat capacity change of unfolding [kcal/mol/K] | unfolding enthalpy (calorimetric) [kcal/mol] | unfolding enthalpy (van 't Hoff) [kcal/mol]
I77F | 59.8 | 1.41 | 99.9 | 108

Same assay, conditions: Homo sapiens; pH 2.73; Thermal; DSC; glycine 0.05 M; reversible: yes; structure 1LZ1; whole UniProt chain shown

Variant | Tm [°C] | heat capacity change of unfolding [kcal/mol/K] | unfolding enthalpy (calorimetric) [kcal/mol] | unfolding enthalpy (van 't Hoff) [kcal/mol]
I77F | 62.8 | 1.58 | 104 | 112

Same assay, conditions: Homo sapiens; pH 2.9; Thermal; DSC; glycine 0.05 M; reversible: yes; structure 1LZ1; whole UniProt chain shown

Variant | Tm [°C] | heat capacity change of unfolding [kcal/mol/K] | unfolding enthalpy (calorimetric) [kcal/mol] | unfolding enthalpy (van 't Hoff) [kcal/mol]
I77F | 65.4 | 1.2 | 108 | 116

Same assay, conditions: Homo sapiens; pH 3.05; Thermal; DSC; glycine 0.05 M; reversible: yes; structure 1LZ1; whole UniProt chain shown

Variant | Tm [°C] | heat capacity change of unfolding [kcal/mol/K] | unfolding enthalpy (calorimetric) [kcal/mol] | unfolding enthalpy (van 't Hoff) [kcal/mol]
I77F | 68 | 1.29 | 111 | 120

Same assay, conditions: Homo sapiens; pH 3.15; Thermal; DSC; glycine 0.05 M; reversible: yes; structure 1LZ1; whole UniProt chain shown

Variant | Tm [°C] | heat capacity change of unfolding [kcal/mol/K] | unfolding enthalpy (calorimetric) [kcal/mol] | unfolding enthalpy (van 't Hoff) [kcal/mol]
I77F | 69.8 | 1.36 | 114 | 123

Same assay, conditions: Homo sapiens; pH 2.84; Thermal; DSC; glycine 0.05 M; reversible: yes; structure 1LZ1; whole UniProt chain shown

Variant | Tm [°C] | heat capacity change of unfolding [kcal/mol/K] | unfolding enthalpy (calorimetric) [kcal/mol] | unfolding enthalpy (van 't Hoff) [kcal/mol]
I77S | 55.3 | 1.55 | 94.7 | 99.9

Same assay, conditions: Homo sapiens; pH 3.04; Thermal; DSC; glycine 0.05 M; reversible: yes; structure 1LZ1; whole UniProt chain shown

Variant | Tm [°C] | heat capacity change of unfolding [kcal/mol/K] | unfolding enthalpy (calorimetric) [kcal/mol] | unfolding enthalpy (van 't Hoff) [kcal/mol]
I77S | 58.2 | 1.48 | 98.2 | 104
